Residue numbers refer to the chain shown, from its start. Where two headings read alike, the source gives them in different places.
T1: linear 15mer peptide derived from human CD3ε residues 2-16 (wild type of the substitution library, Set 1) (human)
T1 construct: Probed as a saturation mutagenesis library on a peptide array
T1 peptide: DGNEEMGGITQTPYK

T2: linear 15mer peptide derived from cynomolgus CD3ε residues 2-16 (wild type of the substitution library, Set 2) (cynomolgus)
T2 construct: Probed as a saturation mutagenesis library on a peptide array
T2 peptide: DGNEEMGSITQTPYQ

T3: linear 15mer peptides derived from human CD3ε residues 5-20 (Set 3) (human)
T3 construct: also called peptides spanning residues 5-20
T3 peptide: EEMGGITQTPYKVSIS

T4: linear 15mer peptides derived from cynomolgus CD3ε residues 5-20 (Set 4) (cynomolgus)
T4 construct: also called peptides spanning residues 5-20
T4 peptide: EEMGSITQTPYQVSIS

T5: mouse IL23R (mouse, UniProt Q8K4B4 24-374, limits assumed)
T5 sequence (looked up): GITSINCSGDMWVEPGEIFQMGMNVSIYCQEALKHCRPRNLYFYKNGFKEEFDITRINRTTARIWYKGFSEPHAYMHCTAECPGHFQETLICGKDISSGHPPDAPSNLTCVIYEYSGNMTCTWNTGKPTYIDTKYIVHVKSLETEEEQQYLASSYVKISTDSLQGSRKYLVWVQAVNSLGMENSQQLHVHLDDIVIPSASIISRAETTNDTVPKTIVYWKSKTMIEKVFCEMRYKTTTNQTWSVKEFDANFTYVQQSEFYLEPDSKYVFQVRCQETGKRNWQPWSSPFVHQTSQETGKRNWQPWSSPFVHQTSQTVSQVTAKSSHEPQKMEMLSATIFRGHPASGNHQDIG

B1: clone-01 (antibody, V domains shown)
VH: QSVEESGGRLVTPGTPLTLTCTVSGFPLSSYAMIWVRQAPGKGLEWIGMILRAGNIYYASWAKGRFTISKTSTTVDLKITSPTTEDTATYFCARRQYNTDGYPIGIGDLWGPGTLVTVSS
VL: AQVLTQTASSVSAAVGGTVTISCQSSESVYNNNRLSWFQQKPGQPPKQLIYSASSLASGVPSRFKGSGSGTQFTLTISDLECDDAATYYCQGEFSCSSADCFTFGGGTEVVVKG
notes: Recombinant rabbit IgG; also called purified monoclonal rabbit anti-CD3ε antibody clone-01
B2: clone-10 (antibody, V domains shown)
VH: B1 VH with V3L, Y31F, I34L, L51M, G54H, I56M, K78E, Q96H, D100Y, G105A
VL: B1 VL with A8P, V19A, S26N, S28N, V29I, N31S, P42A, K47N
notes: Recombinant rabbit IgG
B3: clone-09 (antibody, V domains shown)
VH: QSLEESGGRLVTPGTPLTLTCTVSGFPLNRYAMLWVRQAPGKGLEWIGLITRADKKYYASWAKGRFTISKTSTTVDLEITGPTTEDTATYFCARRHYNTDGYPVAIGDLWGPGTLVTVSS
VL: B1 VL with A8P, S26N, S28N, V29I, N31S, K47N, S95N, S97N
notes: Recombinant rabbit IgG
B4: clone-12 (antibody, V domains shown)
VH: B3 VH with N29S, K55N, G81S, V104I
VL: B1 VL with A8P, A14T, S26N, S28N, V29I, N31S, Q48L, S95N, S97N
notes: Recombinant rabbit IgG
B5: clone-04 (antibody, V domains shown)
VH: QSLEESGGRLVKPDETLTLTCTVSGFPLSSYAMGWFRQAPGKGLEWIGMILRSDNTYYASWAKGRFTISKTSTTVDLKITSPTTEDTATYFCARRHYNASGNPIAIGDLWGPGTLVTVSS
VL: B1 VL with A8P, S22N, E27Q, Q48L, S52T, A53T, Q72E, D83A, S98R, T103N
notes: Recombinant rabbit IgG; also called Clone 4
B6: PRO387 (bispecific antibody)
chain: DIQMTQSPSSLSASVGDRVTITCQASENIYSFLAWYQQKPGKAPKLLIYSASKLAAGVPSRFSGSGSGTDFTLTISSLQPEDFATYYCQQTNRYSNPDIYNVFGQGTKLTVLGGGGGSEVQLVESGGGLVQPGKSLKLSCEASGFTFSGYGMHWVRQAPGRGLESVAYITSSSINIKYADAVKGRFTVSRDNAKNLLFLQMNILKSEDTAMYYCARFDWDKNYWGQGTMVTVSSGGGGSGGGGSGGGGSGGGGSDIQMTQSPSSLPASLGDRVTINCQASQDISNYLNWYQQKPGKAPKLLIYYTNKLADGVPSRFSGSGSGRDSSFTISSLESEDIGSYYCQQYYNYPWTFGPGTKLEIKRGGGGSEVQLVESGGGLVQPGGSLRLSCAASGIDFNSNYYMCWVRQAPGKGLEWIGCIYVGSHVNTYYANWAKGRFTISRDNSKNTVYLQMNSLRAEDTAVYYCATSGSSVLYFKFWGQGTLVTVSS
notes: scDb VLA-L1-VHB-L2-VLB-L3-VHA, A = anti-IL23R, B = anti-mouse CD3ε 2C11; also called bispecific single-chain diabody surrogate (scDb); anti-IL23R 14-11-D07-sc01 × anti-mCD3 2C11
B7: PRO400 (Fab, V domains shown)
VH: EVQLVESGGGLVQPGKSLKLSCEASGFTFSGYGMHWVRQAPGRGLESVAYITSSSINIKYADAVKGRFTVSRDNAKNLLFLQMNILKSEDTAMYYCARFDWDKNYWGQGTMVTVSS
VL: DIQMTQSPSSLPASLGDRVTINCQASQDISNYLNWYQQKPGKAPKLLIYYTNKLADGVPSRFSGSGSGRDSSFTISSLESEDIGSYYCQQYYNYPWTFGPGTKLEIKR
notes: Chimeric Fab: hamster 2C11 variable domains with human CL and CH1; also called anti-mCD3 Fab; 2C11 Fab
B8: clone-11 (antibody, V domains shown)
VH: QSLEESGGRLVTPGTPLTLTCTVSGFPLSSYAMGWFRQAPGKGLEWIGMILRADNTYYASWVNGRFTISKTSTTVDLKITSPTTEDTATYFCARRHYNTYGYPVAIGDLWGPGTLVTVSS
VL: B1 VL with A8P, S22N, E27Q, Q48L, S52T, Q72E, D83A
notes: Recombinant rabbit IgG

Tests used:
[1] = target: human CD3ε expressed on the cell surface of T cells (Jurkat cells; human CD8+ T cells) (human) (UniProt P07766); experiment: cell-based or functional assay
[2] = target: T6, cynomolgus monkey heterodimeric single-chain CD3εγ extracellular domain (cynomolgus monkey, UniProt Q95LI5 22-117; Q95LI7 23-113); experiment: SPR; ratio of the KDs for cyno and human single-chain CD3εγ
[3] = target: T6, cynomolgus monkey heterodimeric …; experiment: SPR, rabbit IgG captured, cyno single-chain CD3εγ ECD injected
[4] = target: T7, human heterodimeric single-chain CD3εγ extracellular domain (human, UniProt P07766 23-126; P09693 23-116); experiment: SPR, rabbit IgG captured, human single-chain CD3εγ ECD injected
T7 construct: extracellular domain; Produced in-house; also called scCD3γε; human CD3ge
Procedure: Binding affinities of monoclonal rabbit anti-CD3 antibodies were measured by surface plasmon resonance (SPR) using a MASS-1 SPR instrument (Sierra Sensors). […] Rabbit monoclonal antibodies were captured by the immobilized anti-rabbit IgG antibody. Two-fold serial dilutions of human heterodimeric single-chain CD3εγ extracellular domain (produced in-house) ranging from 90 to 2.81 nM were injected into the flow cells for 3 min and dissociation of the protein from the IgG captured on the sensor chip was allowed to proceed for 5 min. After each injection cycle, surfaces were regenerated with two injections of 10 mM glycine-HCl. The apparent dissociation (kd) and association (ka) rate constants and the apparent dissociation equilibrium constant (KD) were calculated with the MASS-1 analysis software (Analyzer, Sierra Sensors) using one-to-one Langmuir binding model.

[5] = target: T8, human CD3ε expressed on the cell surface of T cells (Jurkat cells; human CD8+ T cells) (human, UniProt P07766 23-207); experiment: cell-based ELISA on Jurkat cells, CD3ε-deficient Jurkat subtracted
T8 construct: whole, on cells; also called native CD3ε embedded in the TCR complex on Jurkat cells
Procedure: Jurkat cells (clone E6-1), a human T cell line, were seeded at 300,000 cells/well in round bottom 96-well plates in 100 μl phosphate-buffered saline (PBS) containing 10% FBS. Five-fold serial dilutions of anti-CD3 rabbit monoclonal antibodies ranging from 90 nM to 0.0058 nM were added to the plates in 100 μl PBS containing 10% FBS. […] This secondary antibody was linked to the enzyme horseradish peroxidase (HRP). HRP activity was measured by addition of TMB substrate (3,3′,5,5′-tetramethylbenzidine, KPL, Cat. No. 53-00-00), which in a colorimetric reaction is processed by the HRP. The color intensity of the processed substrate is directly proportional to the amount of anti-CD3 antibody bound to Jurkat cells. To quantify color intensity, light absorbance (optical density) at the respective wave length was measured using a microtiter plate reader (Infinity reader M200 Pro, Tecan).
To correct for unspecific binding of the antibodies to unknown components presented on the cell surface of Jurkat cells, a CD3ε deficient derivative of the Jurkat T cell line (J.RT3-T3.5) was used. Binding of the monoclonal antibodies to this cell line was measured as described above for the Jurkat cells. For quantification of specific binding to Jurkat cells, the optical density for binding to the negative control was subtracted from the optical density for binding to Jurkat cells. Data were analyzed using a four-parameter logistic curve fit using the Softmax Data Analysis Software (Molecular Devices), and the molar concentration of anti-CD3 antibody required to reach 50% binding (EC₅₀, mid-OD of the standard curve) was derived from dose response curves.

[6] = target: T8, human CD3ε expressed on the cell …; experiment: cell-based or functional assay
[7] = target: T1, linear 15mer peptide derived from human …; experiment: 15mer peptide array ELISA
[8] = target: T2, linear 15mer peptide derived from …; experiment: 15mer peptide array ELISA
[9] = target: T3, linear 15mer peptides derived from …; experiment: peptide array ELISA, Set 3
Procedure: (§1) The binding of the antibodies to each of the synthesized peptides was tested by ELISA. The peptide arrays were incubated with primary antibody solution (overnight at 4° C.). After washing, the peptide arrays were incubated with a 1/1000 dilution of an antibody peroxidase conjugate (SBA, cat.nr.2010-05) for one hour at 25° C. After washing, the peroxidase substrate 2,2′-azino-di-3-ethylbenzthiazoline sulfonate (ABTS) and 2 μl/ml of 3% H₂O₂ were added. After one hour, the color development was measured. The color development was quantified with a charge coupled device (CCD)—camera and an image processing system.

[10] = target: T4, linear 15mer peptides derived from …; experiment: peptide array ELISA, Set 4
Procedure: as §1

[11] = target: T5, mouse IL23R; experiment: SPR
[12] = target: T9, mouse CD3ε (mouse, UniProt P22646 22-108, limits assumed); experiment: SPR
[13] = target: T9, mouse CD3ε; experiment: SPR; remark: listed apart in the source

T9 sequence (P22646 22-108 limits assumed): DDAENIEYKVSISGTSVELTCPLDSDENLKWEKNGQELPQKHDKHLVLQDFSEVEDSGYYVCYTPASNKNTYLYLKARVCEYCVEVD
T6 sequence (Q95LI7 other isoform, or with tags, fused parts or gaps): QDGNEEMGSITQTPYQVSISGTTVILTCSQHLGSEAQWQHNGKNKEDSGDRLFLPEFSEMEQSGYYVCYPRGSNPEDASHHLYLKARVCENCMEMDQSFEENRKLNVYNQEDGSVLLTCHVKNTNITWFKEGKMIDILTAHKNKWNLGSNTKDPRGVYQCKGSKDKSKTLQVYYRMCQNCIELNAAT

| Molecule | KD (human)/KD (cyno) [2] | Kd [3] [nM] | koff [3] [s⁻¹] | kon [3] [M⁻¹ s⁻¹] | Kd [4] [nM] | koff [4] [s⁻¹] | kon [4] [M⁻¹ s⁻¹] | EC50 [5] [nM] | other results |
| --- | --- | --- | --- | --- | --- | --- | --- | --- | --- |
| TR66 (antibody) |  |  |  |  |  |  |  |  | Fold increase in CD69 expression [MFI normalized to neg. ctrl.], 1.25 µg/ml anti-CD3 IgG [1]: 1.6 fold; Fold increase in CD69 expression [MFI normalized to neg. ctrl.], 5 µg/ml anti-CD3 IgG [1]: 2.2 fold; Fold increase in CD69 expression [MFI normalized to neg. ctrl.], 20 µg/ml anti-CD3 IgG [1]: 3 fold |
| OKT3 (antibody) |  |  |  |  |  |  |  |  | Fold increase in CD69 expression [MFI normalized to neg. ctrl.], 1.25 µg/ml anti-CD3 IgG [1]: 1.8 fold; Fold increase in CD69 expression [MFI normalized to neg. ctrl.], 5 µg/ml anti-CD3 IgG [1]: 2.5 fold; Fold increase in CD69 expression [MFI normalized to neg. ctrl.], 20 µg/ml anti-CD3 IgG [1]: 3.1 fold |
| B1 | 3 | 10.2 | 0.00392 | 386000 | 2.97 | 0.00159 | 536000 | 0.58 |  |
| B2 | 7 | 10.9 | 0.00349 | 321000 | 1.66 | 0.00126 | 757000 | 0.35 | Fold increase in CD69 expression [MFI normalized to neg. ctrl.], 1.25 µg/ml anti-CD3 IgG [6]: 2.6 fold; Fold increase in CD69 expression [MFI normalized to neg. ctrl.], 5 µg/ml anti-CD3 IgG [6]: 4.2 fold; Fold increase in CD69 expression [MFI normalized to neg. ctrl.], 20 µg/ml anti-CD3 IgG [6]: 6.2 fold |
| B3 | 10 | 11.6 | 0.00269 | 232000 | 1.14 | 0.000688 | 601000 | 0.82 |  |
| B4 | 20 | 22.2 | 0.00314 | 142000 | 1.11 | 0.000798 | 721000 | 0.59 |  |
| B5 | 36 | 4.12 | 0.00266 | 646000 | 0.113 | 9.88e-05 | 873000 | 1.87 | binding result [7]: binds; binding result [8]: binds; binding result [9]: no binding; binding result [10]: no binding; Fold increase in CD69 expression [MFI normalized to neg. ctrl.], 1.25 µg/ml anti-CD3 IgG [6]: 2.6 fold; Fold increase in CD69 expression [MFI normalized to neg. ctrl.], 5 µg/ml anti-CD3 IgG [6]: 3.5 fold; Fold increase in CD69 expression [MFI normalized to neg. ctrl.], 20 µg/ml anti-CD3 IgG [6]: 7.8 fold |
| B6 |  |  |  |  |  |  |  |  | Kd [11]: 4.66 nM; koff [11]: 0.00326 s⁻¹; kon [11]: 701000 M⁻¹ s⁻¹; Kd [12]: 9.11 nM; koff [12]: 0.00213 s⁻¹; kon [12]: 233000 M⁻¹ s⁻¹ |
| B7 |  |  |  |  |  |  |  |  | Kd [13]: 11.4 nM; koff [13]: 0.00266 s⁻¹; kon [13]: 233000 M⁻¹ s⁻¹ |
| B8 | 3 | 10 | 0.00365 | 363000 | 3.13 | 0.00133 | 425000 | 0.28 |  |

From patent US20180244777A1 (NUMAB THERAPEUTICS, published 2018)
